Data published in patent US20130059772A1, “Use of Repeat Sequence Protein Polymers in Personal Care Compositions” (DANISCO US INC., priority 2003, published 2013).

Key:
elastase = test: Elastase inhibition assay (fibroblast lysate, STANA substrate); format: biochemical, human; conditions: positive control
Procedure: The RSPP test materials were also tested to determine their effect(s) on elastase activity. In these experiments, human dermal fibroblasts were used as a source of the elastase enzyme. This enzyme was partially purified from the fibroblasts by lysing the cells in an elastase buffer and retaining the soluble portion of the lysate. Portions of this fibroblast lysate were then incubated with test materials and a synthetic elastase substrate, Suc-(Ala3)-p-Nitroaniline (STANA). Elastase acts upon this substrate to release p-nitroaniline, which can be detected spectrophotometrically by measuring the absorbance at a wavelength of 405 nm. […]
The fibroblasts were washed twice with 15 ml of phosphate buffered saline with each wash removed via aspiration. […] The protein concentration of the fibroblast lysate was determined using the Pierce BCA Protein Assay kit (see below for details) and the fibroblast lysate was stored at −75° C. until used (for up to 1 year).
Upon determining the protein concentration of the lysate, a small sample was obtained and the elastase activity of the lysate was determined at 1×, 0.5× and 0.25× concentrations. The activity was determined for each of the different concentrations in exactly the same way that the uninhibited sample was treated in the elastase assay (see below). […] After 1.25 hours, the well plate was removed and read in a 96-well plate reader at 405 nm. […]

[1] = UVB protection, initial MTT assay (material applied after UVB); conditions: human, cultured dermal fibroblasts
Procedure: (§1) In these experiments, the test material was tested at six concentrations with two duplicate sets of cells prepared. […] Changes in cell viability were then determined 48 hours post material application via an MTT assay, as described above.
(§2) Fibroblasts were seeded into the individual wells of a 96 well plate in 100 μl FGM, and incubated overnight at 37±2° C. and 5±1% CO2. On the following day, the media were removed via aspiration to eliminate any non-adherent cells and replaced with 100 μl of fresh FGM. The cells were grown until confluent, with a media change every 48 to 72 hours.
(§3) An UVLM-26 lamp was used as the source of UVB light. UV light intensity was measured using a UVX radiometer coupled to a UVB sensor probe (UV Products) to determine the time required to deliver an approximate dose of 50 mj/cm^2. Prior to UVB exposure, the FGM was replaced with 100 μl PBS. After exposure, the PBS was removed and replaced with FGM supplemented with either the test materials, 20 μM Trolox, or left unsupplemented. A duplicate set of cells was also prepared and treated as described above, with the exception that they were not exposed to UVB light. […] The cells were allowed to incubate with the test materials for 48 hours, and then changes in cell viability were determined via an MTT assay. […]
(§4) After the 48-hour incubation, the cell culture medium was removed and the fibroblasts were washed with PBS to remove any remaining test material. […] The 96-well plate was then read at 540 nm using isopropyl alcohol as a blank.
(§5) The mean MTT absorbance value for the negative control cells (non-UVB exposed and non test material treated cells) was calculated and used to represent 100% value for cell number. The individual MTT values from the cells undergoing the various treatments was then divided by the mean value for the negative control cells and expressed as a percent, to determine the change in cell viability caused by each treatment. MTT scores for each treatment are expressed as means±the standard deviation of the mean.

[2] = system: cultured dermal fibroblasts; test: as above; conditions: Homo sapiens, Fibroblast, light or radiation study, 48 h, read-out: +UVB Percent Viability
Procedure: as §1, §2, §3, §4, §5

elastin = test: Elastin assay (Fastin colorimetric assay of culture media); format: cell-based, human; conditions: summary in words
Procedure: Elastin is released by fibroblasts (soluble elastin) into the extracellular space where it is then cross-linked to other elastin proteins to form an extensive network of fibers and sheets (insoluble elastin). Soluble elastin can be readily measured from cell culture medium via a colorimetric assay.
The test materials were tested in triplicate.
In these experiments, the Biocolor Fastin Elastin Assay kits were used. A 50 μl aliquot of sample material (cell culture medium for soluble elastin) was mixed with 1.0 ml of cold Fastin Precipitating Reagent in a 1.5-ml microcentrifuge tube. […]
To release the elastin-bound dye, 1.0 ml of Fastin Destain reagent was added to each microcentrifuge tube. […] The absorbance of this solution was measured by a plate reader at 490 nm (200 μl volume read).
An elastin standard curve was generated using 12.5, 25, and 50 μg aliquots of an Elastin Standard into microcentrifuge tubes (in duplicate). These samples were treated as described above (Elastin Assay) and the absorbance values were used to generate a standard curve of known concentrations. To derive the standard curve for the elastin assay, the absorbance was plotted against the elastin concentration in μg/ml for the standards. […] Mean absorbance values for the test materials and untreated samples were then used to estimate the amount of elastin present in each sample.

[3] = system: Fibroblasts (HDFn Cell Line); test: Initial pilot cell viability dose response (MTT assay); conditions: for cell viability, percent of untreated cells: 48 hours
Procedure: Initial screening was conducted to identify a test range suitable to determine the effect of a broad range of test material concentrations on cell viability. […] Cultured fibroblasts were exposed to the test materials for 48 hours and then changes in cell viability were determined using an MTT assay (i.e., a colorimetric analysis of the metabolic activity of the cultured cells, described in greater detail below).
The purple crystals are extracted from the cells with isopropanol and the amount of crystal formation quantified spectrophotometrically. […] A decrease in color intensity can be a sign of toxicity.
Fibroblasts (Cascade Biologics, HDFn Cell Line, lot#1C0914) were seeded into the individual wells of either a 96-well plate (for the initial pilot work to determine concentration effects on cell viability) in 100 μl of Fibroblast Growth Media (FGM) or in 12-well plates (for the measurement of collagen, elastin and MMP-1) in 1.0 ml of FGM and incubated overnight at 37±2° C. and 5±1% CO2. On the following day, the medium was removed via aspiration to eliminate any non-adherent cells and replaced with fresh FGM. The cells were grown until confluent, with a media change every 48 to 72 hours. Upon reaching confluency, the cells were treated for 24 hours with Dulbecco's Modified Essential Media (DMEM) supplemented with 1.5% FBS to wash out any effects from the growth factors included in the normal FGM. After this 24-hour wash out period, the cells were treated with the test materials at the specified concentrations dissolved in DMEM with 1.5% FBS. Untreated cells (negative controls) received DMEM with 1.5% FBS. The cells were incubated for 48 hours and at the end of the incubation period cell culture medium was either discarded (pilot work) or collected and stored frozen at −75° C. The test materials were tested in triplicate.
After the 2-day incubation, the cell culture medium was removed and the fibroblasts were washed twice with PBS to remove any remaining test material. After the final wash, either 100 μl (96-well plates) or 300 μl (12-well plates) of DMEM supplemented with 0.5 mg/ml MTT were added to each well and the cells were incubated for 1 hour at 37±2° C. and 5±1% CO2. After the incubation, the DMEM/MTT solution was removed and the cells were washed again once with PBS and then either 100 μl (96-well plates) or 1 ml (12-well plates) of isopropyl alcohol were added to each well to extract the purple formazin crystals. For the 12-well plates, two hundred microliters of the isopropyl extracts was transferred to a 96-well plate. The 96-well plates were read at 540 nm using isopropyl alcohol as a blank. The mean MTT absorbance value for the negative control cells was calculated and used to represent 100% value for cell viability. The individual MTT values from the cells undergoing the various treatments were then divided by the mean value for the negative control cells and expressed as a percent, to determine the change in cell viability caused by each treatment.

Molecule: CC(C)C[C@H](NP(=O)(O)O[C@@H]1O[C@@H](C)[C@H](O)[C@@H](O)[C@H]1O)C(=O)N[C@@H](Cc1c[nH]c2ccccc12)C(=O)O [Phosphoramidon, phosphoramidon, reference compound]
- Percent Inhibition (elastase; 30 nM): 43%
- Percent Inhibition (elastase; 100 uM): 96%

Molecule: Cc1c(C)c2c(c(C)c1O)CCC(C)(C(=O)O)O2 (stereo not shown) [Trolox]
- viability at 48 h, 20 µM [1]: 120 ± 11%
- viability at 20 µM [2]: 77 ± 9%

Molecule: GC2596-26-A: monodispersed 13-mer SELP47K RSPP (Example 1)
- effect on elastin synthesis (elastin): excellent increase
- cell viability, percent of untreated cells ([3]; 0.0014%): 99 ± 1%
- cell viability, percent of untreated cells ([3]; 0.007%): 101 ± 5%
- cell viability, percent of untreated cells ([3]; 0.014%): 99 ± 10%
- cell viability, percent of untreated cells ([3]; 0.07%): 96 ± 6%
- cell viability, percent of untreated cells ([3]; 0.14%): 101 ± 4%
- cell viability, percent of untreated cells ([3]; 0.5%): 171 ± 4%
- cell viability, percent of untreated cells ([3]; 1%): 138 ± 7%
- effect on the number of viable cells ([3]; initial dose response, summary in words): strongly stimulate increases in the number of viable cells
